T1: HY5 (LONG HYPOCOTYL 5) (Solanum lycopersicum, UniProt Q9SM50 1-158)
T1 sequence: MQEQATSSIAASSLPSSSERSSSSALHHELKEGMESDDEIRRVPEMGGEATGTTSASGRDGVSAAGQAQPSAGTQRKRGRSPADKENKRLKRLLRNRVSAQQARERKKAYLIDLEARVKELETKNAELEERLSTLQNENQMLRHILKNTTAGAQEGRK

B1: PORC-wt probe (dsDNA)
DNA 1: CAAAATGCAACACGTGATGTATGAAT
DNA 2: ATTCATACATCACGTGTTGCATTTTG
B2: PSY2-wt probe (dsDNA)
DNA 1: CTGTGATTTACACGTGTCCTCTTTAT
DNA 2: ATAAAGAGGACACGTGTAAATCACAG

Biological target: T1, HY5 (LONG HYPOCOTYL 5)
Assay: EMSA; no GSNO; LightShift Chemiluminescent EMSA Kit, 20 min at room temperature, 6% native polyacrylamide gel; buffer, salt and pH not stated
Settings: protein: recombinant; tags: His (pET-32a fusion); chain copies: 2; label: biotin 3' end; blunt

| Binder | binding result |
| --- | --- |
| B1 | binds |
| B2 | binds |

Reference: paper PMC9181159, “High Nitric Oxide Concentration Inhibits Photosynthetic Pigment Biosynthesis by Promoting the Degradation of Transcription Factor HY5 in Tomato”
